Assay results: the array DNA melting data of Ke et al.

assay: melting temperature; melt of duplexes; conditions: sodium 0.0675 M; strand 1 µM

| Substance | Tm [°C] |
| --- | --- |
| CGACGTGCGGGATGTGCTG+CAGCACATCCTGCACGTCG ((((((((.((((((((((+)))))))))).)))))))) | 62.6 |
| CGACGTGCCCAATGTGCTG+CAGCACATACTGCACGTCG ((((((((...((((((((+))))))))...)))))))) | 47.5 |
| CGACGTGCGTGATGTGCTG+CAGCACATAAGGCACGTCG ((((((((.(.((((((((+)))))))).).)))))))) | 52.7 |
| CGACGTGCTCCATGTGCTG+CAGCACATGATGCACGTCG ((((((((..(((((((((+)))))))))..)))))))) | 53.7 |
| CGACGTGCTAGATGTGCTG+CAGCACATAACGCACGTCG ((((((((...((((((((+))))))))...)))))))) | 49.9 |
| CGACGTGCCGGATGTGCTG+CAGCACATCCGGCACGTCG (((((((((((((((((((+))))))))))))))))))) | 68.2 |
| CGACGTGCTTTATGTGCTG+CAGCACATCGAGCACGTCG (((((((((..((((((((+))))))))..))))))))) | 51.3 |
| CGACGTGCTAGATGTGCTG+CAGCACATGCGGCACGTCG ((((((((...((((((((+))))))))...)))))))) | 50.3 |
| CGACGTGCTTGATGTGCTG+CAGCACATATGGCACGTCG ((((((((...((((((((+))))))))...)))))))) | 51 |
| CGACGTGCATGATGTGCTG+CAGCACATAGTGCACGTCG (((((((((..((((((((+))))))))..))))))))) | 49.6 |
| CGACGTGCAACATGTGCTG+CAGCACATTAGGCACGTCG ((((((((...((((((((+))))))))...)))))))) | 48.9 |
| CGACGTGCGCTATGTGCTG+CAGCACATTCCGCACGTCG (((((((((..((((((((+))))))))..))))))))) | 52.1 |
| CGACGTGCGCGATGTGCTG+CAGCACATGTTGCACGTCG ((((((((...((((((((+))))))))...)))))))) | 50.5 |
| CGACGTGCATAATGTGCTG+CAGCACATTATGCACGTCG (((((((((((((((((((+))))))))))))))))))) | 61.8 |
| CGACGTGCCTGATGTGCTG+CAGCACATCGTGCACGTCG ((((((((..(((((((((+)))))))))..)))))))) | 51.4 |
| CGACGTGCGACATGTGCTG+CAGCACATAAAGCACGTCG ((((((((...((((((((+))))))))...)))))))) | 55.2 |
| CGACGTGCAGAATGTGCTG+CAGCACATTCGGCACGTCG ((((((((.((((((((((+)))))))))).)))))))) | 59.9 |
| CGACGTGCTAAATGTGCTG+CAGCACATGATGCACGTCG ((((((((...((((((((+))))))))...)))))))) | 53.2 |
| CGACGTGCGTCATGTGCTG+CAGCACATACAGCACGTCG ((((((((...((((((((+))))))))...)))))))) | 53 |
| CGACGTGCTAAATGTGCTG+CAGCACATGGCGCACGTCG ((((((((...((((((((+))))))))...)))))))) | 51.2 |
| CGACGTGCGCGATGTGCTG+CAGCACATCGAGCACGTCG ((((((((.((((((((((+)))))))))).)))))))) | 63.1 |
| CGACGTGCGATATGTGCTG+CAGCACATGCGGCACGTCG ((((((((...((((((((+))))))))...)))))))) | 50 |
| CGACGTGCTGGATGTGCTG+CAGCACATTCAGCACGTCG ((((((((((.((((((((+)))))))).)))))))))) | 60 |
| CGACGTGCTTGATGTGCTG+CAGCACATTATGCACGTCG ((((((((.(.((((((((+)))))))).).)))))))) | 51.9 |
| CGACGTGCTCAATGTGCTG+CAGCACATATCGCACGTCG ((((((((...((((((((+))))))))...)))))))) | 47.5 |
| CGACGTGCGCTATGTGCTG+CAGCACATCCAGCACGTCG ((((((((...((((((((+))))))))...)))))))) | 49.8 |

| Substance | Tm [°C] |
| --- | --- |
| CGACGTGCTTTATGTGCTG+CAGCACATCACGCACGTCG ((((((((.(.((((((((+)))))))).).)))))))) | 47.9 |
| CGACGTGCCGTATGTGCTG+CAGCACATATTGCACGTCG ((((((((..(((((((((+)))))))))..)))))))) | 51.5 |
| CGACGTGCTGCATGTGCTG+CAGCACATGCTGCACGTCG ((((((((.((((((((((+)))))))))).)))))))) | 61.2 |
| CGACGTGCCAGATGTGCTG+CAGCACATGCCGCACGTCG ((((((((...((((((((+))))))))...)))))))) | 49.5 |
| CGACGTGCTCAATGTGCTG+CAGCACATGAAGCACGTCG (((((((((..((((((((+))))))))..))))))))) | 53.6 |
| CGACGTGCTTTATGTGCTG+CAGCACATAATGCACGTCG ((((((((.((((((((((+)))))))))).)))))))) | 55.1 |
| CGACGTGCAAAATGTGCTG+CAGCACATCCGGCACGTCG ((((((((...((((((((+))))))))...)))))))) | 49.1 |
| CGACGTGCGACATGTGCTG+CAGCACATGCTGCACGTCG ((((((((..(((((((((+)))))))))..)))))))) | 54.7 |
| CGACGTGCGCGATGTGCTG+CAGCACATGCAGCACGTCG ((((((((...((((((((+))))))))...)))))))) | 55.8 |
| CGACGTGCACTATGTGCTG+CAGCACATCCCGCACGTCG ((((((((...((((((((+))))))))...)))))))) | 42.6 |
| CGACGTGCTCGATGTGCTG+CAGCACATGTCGCACGTCG ((((((((...((((((((+))))))))...)))))))) | 48.2 |
| CGACGTGCAAAATGTGCTG+CAGCACATAAAGCACGTCG ((((((((...((((((((+))))))))...)))))))) | 50.8 |
| CGACGTGCGGGATGTGCTG+CAGCACATGCTGCACGTCG ((((((((.(.((((((((+)))))))).).)))))))) | 56.9 |
| CGACGTGCTCGATGTGCTG+CAGCACATCGCGCACGTCG ((((((((.((((((((((+)))))))))).)))))))) | 59.6 |
| CGACGTGCACTATGTGCTG+CAGCACATTTAGCACGTCG ((((((((...((((((((+))))))))...)))))))) | 42.7 |
| CGACGTGCATGATGTGCTG+CAGCACATGTTGCACGTCG (((((((((..((((((((+))))))))..))))))))) | 52.2 |
| CGACGTGCTCAATGTGCTG+CAGCACATACGGCACGTCG ((((((((...((((((((+))))))))...)))))))) | 48.1 |
| CGACGTGCTAAATGTGCTG+CAGCACATGCAGCACGTCG (((((((((..((((((((+))))))))..))))))))) | 55.2 |
| CGACGTGCCTGATGTGCTG+CAGCACATCTGGCACGTCG (((((((((.(((((((((+))))))))).))))))))) | 61.1 |
| CGACGTGCAGGATGTGCTG+CAGCACATGCCGCACGTCG ((((((((.(.((((((((+)))))))).).)))))))) | 54 |
| CGACGTGCTAAATGTGCTG+CAGCACATATAGCACGTCG ((((((((((.((((((((+)))))))).)))))))))) | 55.4 |
| CGACGTGCAGAATGTGCTG+CAGCACATGCGGCACGTCG ((((((((.(.((((((((+)))))))).).)))))))) | 54.4 |
| CGACGTGCCTAATGTGCTG+CAGCACATCAGGCACGTCG ((((((((((.((((((((+)))))))).)))))))))) | 56.3 |
| CGACGTGCGTCATGTGCTG+CAGCACATTGTGCACGTCG ((((((((...((((((((+))))))))...)))))))) | 46.3 |
| CGACGTGCGTTATGTGCTG+CAGCACATAGAGCACGTCG ((((((((..(((((((((+)))))))))..)))))))) | 54.6 |
| CGACGTGCCAAATGTGCTG+CAGCACATGGGGCACGTCG (((((((((..((((((((+))))))))..))))))))) | 56.6 |
